Assay results from patent publication US20260226524A1, “GLUTAMINE SYNTHETASE MARKER FOR RECOMBINANT EXPRESSION” (priority 2023, published 2026).

Tests used:
[1] = test system: Chinese Hamster Ovary CHO-K1 (CCL-61) host cell; test: Flow cytometry analysis of GS expression via UnaG fluorescence in electroporated cell pools; assay type: cell-based; conditions: about 3 weeks post-seeding; for UnaG expression of cells (selection efficiency): MSX selection, FIGS. 3A-3B
Excerpt: Vector design: Nearly all selectable marker currently used in GS system is Cricetulus griseus-derived GS. To investigate whether the GS from other species further improve titer or screening efficiency, a set of vectors were designed as described below: • a sequence coding for an eel green fluorescent protein UnaG, a 2A self-cleaving peptide and a glutamine synthetase, placed under the control of the SV40 promoter; • two expression cassettes, in which the sequences coding for the heavy chain and light chain of a human anti-RANKL antibody denosumab were placed under the control of CMV promoters, respectively; • a sequence coding for a protein conferring resistance to ampicillin, for use in prokaryotic cells; and • a prokaryotic origin of replication.
(§1) The 2A self-cleaving peptide allowed relatively equal molar expression of the two products separated by it, namely, the green fluorescent protein UnaG and glutamine synthetase. After random integration, GS expression in each individual cell was evaluated by monitoring UnaG level using flow cytometry. Denosumab here served as the secreted reporter for assessing titers using selectable glutamine synthetase markers from different species. The vectors differed from one another by the GS-coding sequences, which were derived from Chinese hamster (Cricetulus griseus), koala (Phascolarctos cinerecus), vesper bat (Pipistrellus kuhlii), gerbil (Meriones unguiculatus), ostrich (Struthio camelus australis), junglefowl (Gallus gallus), pigeon (Columbia Livia), and snake (Pseudonaja textilis), respectively.
(§2) Electroporation and cell screening: Expression vectors described above were first linearized by the restriction endonuclease Pvul (there was one Pvul site in the ampicillin resistant gene). Then linearized vectors were introduced into the host cell using cell electroporator (Lonza Nuleofector 2b). The host cell was derived from ATCC wild-type Chinese Hamster Ovary CHO-K1 (CCL-61) and adapted to serum-free suspension culture at Shanghai ZhenGe Biotech Co. Ltd. 24 hours post electroporation, cell pools were plated into culture flasks or 96-well plates (approximately 1, 200 cells/well, 300 wells per condition) in the absence of or presence of MSX (50 μM).
Flow cytometry analysis of GS expression: About 3 weeks post-seeding, cell pools electroporated with GS gene from indicated species were analyzed using Attune NxT flow cytometer (FIGS. 3A-3C). […] As shown, when the GS from Chinese Hamster was used as the selectable marker, most tested cells (>98%) remained UnaG “negative” in the presence of the MSX, indicating low selection efficiency.

[2] = test system: Chinese Hamster Ovary CHO-K1 (CCL-61) host cell; test: Bio-Layer Interferometry (Octet) analysis of denosumab expression in supernatants of cell pools selected with GS markers; assay type: cell-based; conditions: 50 μM MSX; for pools expressed detectable denosumab (>0.125 ug/mL): Day 20, among 300 seeded pools in 96-well plates, GS used as selectable marker; for median expression value of denosumab of positive pools: Day 20, positive pools (>0.125 ug/mL), Octet ProA biosensor
Description: Vector design: Nearly all selectable marker currently used in GS system is Cricetulus griseus-derived GS.
as §1, with “After” for “The 2A self-cleaving peptide allowed relatively equal molar expression of the two products separated by it, namely, the green fluorescent protein UnaG and glutamine synthetase. After”
as §2

Row | Molecule | UnaG expression of cells (selection efficiency) [1] | pools expressed detectable denosumab (>0.125 ug/mL) [2] [%] | median expression value of denosumab of positive pools [2] [µg/mL] | tested cells remaining UnaG negative ([1]; in the presence of the MSX (50 μM)) [%]
1 | junglefowl GS: Gallus gallus glutamine synthetase, SEQ ID NO: 6 (nucleotide SEQ ID NO: 15), used as selectable marker (protein, listed as Gallus gallus, Junglefowl GS) MLRSLQCLLAYRVGSLPLRSWGHRLATTAHARTALASSAAMATSASSHLSKAIKHMYMKLPQGEKVQAMYIWIDGTGEHLRCKTRTLDHEPKSLEDLPEWNFDGSSTFQAEGSNSDMYLRPAAMFRDPFRKDPNKLVLCEVFKYNRQSADTNLRHTCRRIMDMVSNQHPWFGMEQEYTLLGTDGHPFGWPSNGFPGPQGPYYCGVGADKAYGRDIVEAHYRACLYAGVKIGGTNAEVMPAQWEFQVGPCEGIEMGDHLWIARFILHRVCEDFGVIVSFDPKPIPGNWNGAGCHTNFSTKNMREDGGLKHIEEAIEKLSKRHQYHIRAYDPKGGLDNARRLTGFHETSSIHEFSAGVANRGASIRIPRNVGHEKKGYFEDRRPSANCDPYAVTEALVRTCLLNETGDEPFEYKN | significant amounts of cells showed positive UnaG expression | 73.6 | 2.51 | –
2 | pigeon GS: Columbia Livia glutamine synthetase, SEQ ID NO: 5 (nucleotide SEQ ID NO: 14), used as selectable marker (protein, listed as Columbia livia, pigeon GS) MALLRSVQCLLTYRASSYRLPALGGFVNLLQHSGGDRSATAACTRNPLVRSAAMATSASSHLSKAIKHMYMKLPQGDKVQAMYIWIDGTGEHLRCKTRTLDHEPKSLEDLPEWNFDGSSTFQSEGSNSDMYLRPAAMFRDPFRKDPNKLVLCEVFKYNRQSAETNLRHTCRRIMDMVSNQHPWFGMEQEYTLLGTDGHPFGWPSNGFPGPQGPYYCGVGADKAYGRDIVEAHYRACLYAGVKIGGTNAEVMPAQWEFQVGPCEGIEMGDHLWIARFILHRVCEDFGVIVSFDPKPIPGNWNGAGCHTNFSTKEMREDGGLKHIEEAIEKLSKRHQYHIRAYDPKGGLDNARRLTGFHETSNIHEFSAGVANRGASIRIPRSVGHEKRGYFEDRRPSANCDPYAVTEALVRTCLLNETGDEPFEYKN | significant amounts of cells showed positive UnaG expression | 52.0 | 2.27 | –
3 | Chinese hamster GS: Cricetulus griseus glutamine synthetase, SEQ ID NO: 9 (nucleotide SEQ ID NO: 18), Uniprot P04773; traditional selectable marker (protein, listed as Cricetulus griseus, Hamster GS) MATSASSHLNKGIKQMYMSLPQGEKVQAMYIWVDGTGEGLRCKTRTLDCEPKCVEELPEWNFDGSSTFQSESSNSDMYLSPVAMFRDPFRKEPNKLVFCEVFKYNQKPAETNLRHTCKRIMDMVSNQHPWFGMEQEYTLLGTDGHPFGWPSDGFPGPQGLYYCGVGADKAYRRDIMEAHYRACLYAGVKITGTYAEVKHAQWEFQIGPCEGIRMGDHLWVARFILHRVCKDFGVIATFDSKPIPGNWNGAGCHTNFSTKTMREENGLKHIKEAIEKLSKRHRYHIRAYDPKGGLDNARRLTGFHKTSNINDFSAGVADRSASIRIPRTVGQEKKGYFEARCPSANCDPFAVTEAIVRTCLLNETGDQPFQYKN | – | 4.3 | 1.07 | > 98
4 | ostrich GS: Struthio camelus australis glutamine synthetase, SEQ ID NO: 2 (nucleotide SEQ ID NO: 11), used as selectable marker (protein, listed as Struthio camelus, OstrichGS) MATSASSHLSKAIKHMYMKLPQGEKVQAMYIWIDGTGEHLRCKTRTLDHEPKSLEDLPEWNFDGSSTFQAEGSNSDMYLRPAAMFRDPFRKDPNKLVLCEVFKYNRQSAETNLRHTCRRIMDMVSNQHPWFGMEQEYTLLGTDGHPFGWPSNGFPGPQGPYYCGVGADKAYGRDIVEAHYRACLYAGVKIGGTNAEVMPAQWEFQVGPCEGIEMGDHLWIARFILHRVCEDFGVIVSFDPKPIPGNWNGAGCHTNFSTKSMREDGGLKHIEEAIEKLGKRHQYHIRAYDPKGGLDNARRLTGFHETSSIHEFSAGVANRGASIRIPRNVGHEKKGYFEDRRPSANCDPYAVTEALVRTCLLNETGDEPFEYKN | significant amounts of cells showed positive UnaG expression | 65.3 | 2.57 | –
5 | gerbil GS: Meriones unguiculatus glutamine synthetase, SEQ ID NO: 7 (nucleotide SEQ ID NO: 16), used as selectable marker (protein, listed as Meriones unguiculatus, Gerbil GS) MATSASSQLNKGIKQTYLALPQGEKVQAMYIWVDGTGEGLRCKTRTLDCEPKSVEELPEWNFDGSSTFQSEGSNSDMYLTPVAMFRDPFRKEPNKLVFCEVFKYNRKPAETNLRHSCKRIMEMVSNQRPWFGMEQEYTLMGTDGHPFGWPSNGFPGPQGPYYCGVGADKAYGRDIVEAHYRACLYAGVKIAGTNAEVMPAQWEFQIGPCEGVRMGDHLWVARFILHRVCEDFGVIATFDPKPIPGNWNGAGCHTNFSTKAMREENGLKFIEEAIEKLSKRHQYHIRAYDPKGGLDNARRLTGFHETSNINDFSAGVANRSASIRIPRTVGQEKKGYLEDRRPSANCDPYAVTEALVRTCLLNETGDEPFQYKN | significant amounts of cells showed positive UnaG expression | 63.6 | 2.67 | –
6 | koala GS: Phascolarctos cinerecus glutamine synthetase, SEQ ID NO: 1 (nucleotide SEQ ID NO: 10), used as selectable marker (protein, listed as Phascolarctos cinereus, Koala GS) MATSASSHLNKNIKQMYMNLPQGNKVLAMYIWIDGTGEGLRCKTRTLDSEPKSIDDLPEWNFDGSSTYQSEGSNSDMYLVPAALFRDPFRKDPNKLVFCEVFKYNRKPAETNLRHTCKRIMDMVTNQKPWFGMEQEYTLMGTDGHPFGWPSNGFPGPQGPYYCGVGADKAYGRDIAEAHYRACLYAGVKIVGTNAEAMPSQWEFQIGPCEGIEMGDHLWVARFILHRVCEDFGMIVTFDPKPIPGNWNGAGCHTNFSTKAMREENGLKFIEEAIERLSKRHKYHIRAYDPKGGLDNARRLTGFNETSNINEFSAGVANRGASIRIPRMVGQDKKGYFEDRRPSANCDPYAVTEALIRTCLLNETGEEPFQYKN | significant amounts of cells showed positive UnaG expression | 85.6 | 2.86 | –
7 | snake GS: Pseudonaja textilis glutamine synthetase, SEQ ID NO: 3 (nucleotide SEQ ID NO: 12), used as selectable marker (protein, listed as Pseudonaja textilis, Snake GS) MATSASSHLSKTIKQMYMKLPQGDKVQAMYIWIDGTGEFLRCKTRTLEREPKNVEDLPEWNFDGSSTFQSEGSNSDMYLVPSAMFRDPFRKDPNKLVLCEVLKYNRKPAETNLRSTCKRIMDMVSNQNPWFGMEQEYTLLGTDGHPFGWPSNGFPGPQGPYYCGVGADKAYGRDVVEAHYRACLYAGVNIGGTNAEVMPAQWEFQVGPCEGVDMGDHLWIARFILHRVCEDFGVIVSFDPKPIPGNWNGAGCHTNFSTKNMREEGGLKQIEDAIEKLGKRHQYHIRAYDPKGGLDNARRLTGFHETSNIHEFSAGVANRGASIRIPRNVGQVKKGYFEDRRPSANCDPYAVTEALVRTCLLNETGDEPFEYKN | significant amounts of cells showed positive UnaG expression | 38.0 | 1.75 | –
